# Experimental data from patent US6984373B2, “Fibrin binding moieties useful as imaging agents” (Dyax Corp., priority 2000, dated 2006).
# * marks the point of attachment. HYNIC = NNc1ccc(C(=O)*)cn1
# Test system: human fibrin gel
# Assay: Gamma camera imaging of fibrin clot in rabbit femoral artery with 99mTc-labeled peptide
# Assay type: in vivo
# Conditions: tricine coligand
# Protocol: Preliminary imaging experiments were performed with ^99mTc-labeled DX-328 using tricine as a coligand. A human fibrin gel was formed around a small wire placed in the femoral artery of a rabbit. The radiolabeled imaging agent was injected into the ear vein of the rabbit, and images were taken using a gamma camera.
# The intensity of radioactivity in the pulmonary region is due to circulating imaging agent that has not yet cleared. By increasing the time between injection and imaging, the background in the pulmonary region and elsewhere should be reduced as the unbound imaging agent clears through the kidneys. Alternatively, the same effect could be achieved by decreasing the clearance time of the imaging agent. This could be accomplished by using EDDA as a coligand instead of tricine.
substance,measurement,setting,value
"Ac-WQPCPWESWTFCWDPGGGK(HYNIC)-NH2 (not fully specified (bridges); cysteine pairing not given here; also: 99mTc/tricine complex) [DX-328, HYNIC-labeled peptide, used 99mTc-labeled with tricine coligand]",route of excretion of agent unbound to the clot,rabbit,renally excreted
same,visualisation of clot in left thigh versus clot-free right thigh,"ear vein injection, human fibrin gel on wire in femoral artery",can clearly be seen
